Data taken from patent US20030157685A1 (GENERAL HOSPITAL CORPORATION A MASSACHUSETTS, published 2003).

Legend:
[1] = target: T1, LexA-C-myc bait (carboxy-terminal 176 amino acids of human C-myc) (human, UniProt P0A7C2 1-202; P01106 279-454); experiment: yeast two-hybrid
T1 construct: also called Lex-C-myc

[2] = target: T2, LexA-N-myc bait (carboxyl-terminal 224 amino acids of human N-myc) (human, UniProt P0A7C2 1-202; P04198 241-464); experiment: yeast two-hybrid
T2 construct: also called PL-LexA-N-myc
T2 sequence (looked up): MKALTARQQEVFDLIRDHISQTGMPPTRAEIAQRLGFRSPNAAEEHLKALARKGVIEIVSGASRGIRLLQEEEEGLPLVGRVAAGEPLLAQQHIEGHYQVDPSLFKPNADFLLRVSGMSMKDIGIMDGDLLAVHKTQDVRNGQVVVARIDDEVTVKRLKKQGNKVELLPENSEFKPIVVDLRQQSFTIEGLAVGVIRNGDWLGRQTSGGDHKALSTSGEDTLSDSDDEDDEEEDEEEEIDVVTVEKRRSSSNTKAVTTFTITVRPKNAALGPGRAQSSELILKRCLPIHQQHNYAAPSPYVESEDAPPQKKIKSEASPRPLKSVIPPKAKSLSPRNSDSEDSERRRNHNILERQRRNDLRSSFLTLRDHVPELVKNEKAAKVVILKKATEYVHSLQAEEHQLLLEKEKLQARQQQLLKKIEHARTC

binding result [1]: binds
binding result [2]: binds
B1: full length Nmi fused in-frame with the transcriptional activator B42 in JG4-5 vector (other, not shown: small tags and cut ends)
chain: MEADKDDTQQILKEHSPDEFIKDEQNKGLIDEITKKNIQLKKEIQKLETELQEATKEFQIKEDIPETKMKFLSVETPENDSQLSNISCSFQVSSKVPYEIQKGQALITFEKEEVAQNVVSMSKHHVQIKDVNLEVTAKPVPLNSGVRFQVYVEVSKMKINVTEIPDTLREDQMRDKLELSFSKFRNGGGEVDRVDYDRQSGSAVITFVEIGVADKILKKKEYPLYINQTCHRVTVSPYTEIHLKKYQIFSGTSKRTVLLTGMEGIQMDEEIVEDLINIHFQRAKNGGGEVDVVKCSLGQPHIAYFEE
notes: Yeast two-hybrid prey; the 307 amino acid protein is meant
